Assay [1] addresses T1, human CD276 protein (human, UniProt Q5ZPR3 29-534).
T1 construct: whole, on cells; for SKOV3 and the other cancer lines the protein is the cells' own; also called B7-H3; B7H3
T1 sequence (looked up): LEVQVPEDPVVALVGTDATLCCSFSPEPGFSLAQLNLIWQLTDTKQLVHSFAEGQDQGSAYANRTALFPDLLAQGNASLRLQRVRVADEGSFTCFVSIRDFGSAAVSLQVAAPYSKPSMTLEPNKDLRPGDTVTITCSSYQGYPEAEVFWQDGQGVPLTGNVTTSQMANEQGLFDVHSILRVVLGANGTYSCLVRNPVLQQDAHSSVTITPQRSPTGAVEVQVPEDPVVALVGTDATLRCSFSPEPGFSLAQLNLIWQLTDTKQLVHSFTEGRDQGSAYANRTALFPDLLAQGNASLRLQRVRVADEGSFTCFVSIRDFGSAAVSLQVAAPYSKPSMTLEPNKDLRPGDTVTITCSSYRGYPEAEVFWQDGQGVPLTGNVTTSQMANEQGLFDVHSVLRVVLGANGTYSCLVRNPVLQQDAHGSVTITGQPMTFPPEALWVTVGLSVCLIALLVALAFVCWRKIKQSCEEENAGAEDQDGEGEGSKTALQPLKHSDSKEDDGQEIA
The assay can be described thus: FACS on CHO-S-hCD276 cells. As to the method:
(§1) Screening & Expansion—The subcloning plates were screened by protein or cell-based Elisa, and the subclones with good binding ability were expanded to 24-wells for confirmation tests. The specificity and cross-reactivity of these subclones were confirmed with FACS analysis. Briefly, parental CHO-S cells, CHO-S-hCD276, CHO-S cell line stably over-expressing Macaca fascicularis CD276, CHO-K1 S, cell line stably over-expressing mouse CD276 were incubated with antibodies produced by each subclone respectively. Fluorescent dye-conjugated secondary antibody was used to detect the binding of the primary antibody with the cells. Median fluorescence intensity was measured by FACS analysis.

The target of another assay is T2, mouse CD276 protein (mouse, UniProt Q8VE98 29-316).
T2 construct: whole, on cells; also called mCD276; CHO-S-mCD276
T2 sequence (looked up): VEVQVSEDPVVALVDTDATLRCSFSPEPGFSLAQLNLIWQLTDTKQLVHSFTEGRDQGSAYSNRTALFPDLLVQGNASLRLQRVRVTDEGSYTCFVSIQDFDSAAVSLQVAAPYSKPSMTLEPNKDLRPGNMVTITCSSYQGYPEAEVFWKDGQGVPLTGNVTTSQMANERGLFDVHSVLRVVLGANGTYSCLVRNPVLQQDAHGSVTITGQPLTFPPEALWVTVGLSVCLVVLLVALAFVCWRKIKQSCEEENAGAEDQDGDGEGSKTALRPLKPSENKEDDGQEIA
The assay can be described thus: FACS on CHO-S-mCD276 cells. As to the method:
as §1

Assay [2] addresses T3, Macaca fascicularis CD276 (Macaca fascicularis).
T3 construct: whole, on cells; also called cynomolgus monkey CD276; cynoCD276
The assay can be described thus: FACS on CHO-S-cynoCD276 cells. The protocol:
as §1

In assay [3] the target is T1, human CD276 protein. The assay can be described thus: FACS on SKOV3 cells. From the text:
Sequences of 31 mouse antibodies from Table 5 were selected to generate and produce human IgG1 chimeric antibodies. The binding affinity of these antibodies and bench mark antibody, Enoblituzumab (see U.S. Pat. No. 8,802,091, MGA271, specifically with a construct designated as hBRCA84D-2) and MGC018 (an antibody-drug-conjugate, in which the mAb MGA017 (human IgG1) is conjugated via a cleavable linker to the prodrug seco-DUocarmycin hydroxyBenzamide Azaindole (DUBA), an alkylating agent that can damage DNA in both dividing and non-dividing cells, thereby causing cell death) with human patient derived ovarian cancer cell line, SKOV3, was determined by FACS analysis.
1. Digested cells using Trypsin (1×); Centrifuged the harvested cells at 300 g for 3 min and discarding the supernatant. […] 2. Washed the cells 2 times with FACS buffer by centrifuging at 300 g for 3 min and discarding the supernatant. [0445] 3. […] Kept the cells in dark for FACS analysis.

Usually EC50 stands for the midpoint of the concentration-response curve. Low readings indicate greater potency, high ones weaker potency.

B1: 10-G6-C4-B2 (antibody, V domains shown)
VH: EVQLVESGGGLVQPGGSLRLSCATSGFTLSDYYMSWVRQPPGKAPEWLGFMRNKANGYTTEYSASVRGRFTISRDTSQSIIYLQMNTLRAEDGATYYCVRDRDGRPFAYWGQGTLVTVSA
VL: DIVMTQSPSSLTVTAGEKVTMSCKSSQSLLNSINQKNFLTWYQQKPGQPPKLLIYWASTRESGVPDRFTGSGSGTDFTLTISSVQAEDLAIYYCQNDYTYPLTFGTGTKLELK
notes: mouse monoclonal antibody (hybridoma)
Regarding B1, the “FACS MFI” value was 5650 with human CD276 protein [1], 17400 with mouse CD276 protein and 4320 in assay [2].

B2: 6-H11-G5-D8 (human IgG1 chimeric antibody) (antibody, V domains shown)
VH: EVQLQESGPELVKPGTSVKLSCKASGYTFTSYDINWVRQRPEQGLEWIGWIFPGNGDTYYNEKFKGKATLTSDKSSSTAYMQLSRLTSEDSAVYFCARDLRLGTFDYWGQGTTLTVSS
VL: QIVLTQSPEIMSASPGEKVTMTCSASSSVSYIHWYQQKSGTSPKRWIYDTSKLASGVPARFSGSGSGTSYSLTIRSMEAEDAATYYCQQGSSNPRTFGGGTKLELK
notes: human IgG1 chimeric antibody of the mouse clone
For the molecule B2, in the assay with human CD276 protein [3], a half-maximal response (EC50) required 1.78 µg/mL and the “MFI (Max)” value came out at 200.

B3: 8-B4-F5-E11 (antibody, V domains shown)
VH: QVQLQQPGAELVKPGASVKLSCKASGDTFTSYWMHWVKQRPGQGLEWIGMIHPDSGTRNYNEKVMSKATLNVDKSSSTAYLHLSSLTSEDSAVYYCSRSYGSRLAWFAYWGQGTLVTVSA
VL: QAVVTQESALTTSPGETVTLTCRSSTGAVTTSNFANWVQEKPDHLFTGLIGGTNNRAPGVPARFSGSLIGDKAALTITGAQTEDEAVYFCALWYTNHFIFGSGTKVTVL
notes: as for B1
Consider B3, for which the “FACS MFI” value with human CD276 protein [1] is 40400; in the assay with mouse CD276 protein it was 7370; in assay [2], 58600.

B4: 13-E4-G9-A4 (antibody, V domains shown)
VH: EVMLVESGGGLVKPGGSLKFSCAASGFTFITYAMSWVRQTPEKRLEWVATISGGGIDTYYPDSVKGRFTISRDNAKNTLYLQVNSLRSEDTAMYYCTRQGSQGWGAMDYWGQGTSVTVSS
VL: QIVLTQSPPIMSASPGERVTMTCRASSRVSFMHWYQQKSGTSPRRWIYETSKLASGVPDRFSGSVSGTSYSLTISSMEAEDAATYYCQQWSSNPLTFGAGTKLELK
notes: as for B1
For B4, the “FACS MFI” value with human CD276 protein [1] came to 149000; with mouse CD276 protein it was 1370; in assay [2], 16800.

B5: 25-C8-D7-C5 (antibody, V domains shown)
VH: EVQLQESGGGLVKPGGSLKFSCAASGFTFSTYAMSWVRQTPEKRLEWVATISGGGIDTYYPDSVKGRFTISRDNAKNTLYLQMNSLRSEDTAMYYCARQGSKGWGAMDYWGQGTSVTVSS
VL: QIVLTQSPAIMSASPGEKVTMTCRASSSVSFMHWYQQKSGTSPKRWIYETSKLASGVPDRFSGSGSGTSYSLTISSMEAEDAATYYCQQWSSNPLTFGAGTKLELK
notes: as for B1
For B5, the figures for the “FACS MFI” value (with human CD276 protein [1]; in the assay with mouse CD276 protein; in assay [2]) were 148000, 1160 and 39100, respectively.

B6: 8-C3-E3-F3 (antibody, V domains shown)
VH: EVQLVESGGGLVQPGGSLKLSCAASGFTFSNYGLSWVRLTPDKRLEVVATIGSYGGNTYYPDSVKGRFTISRDNAKNTLYLQMSSLKSEDTAIYYCARDIYYGNSEAWFAYWGQGTLVTVSA
VL: DIVMTQAAFSNPVTLGTSASISCRSSKSLLHSNGITYLYWYLQKPGQSPQLLIYQMSNLASGVPDRFSSSGSETDFTLRISRVEAEDVGVYYCAQNLELPWTFGGGTKLEIK
notes: as for B1
Regarding B6, the “FACS MFI” value with human CD276 protein [1] turned out to be 63900; with mouse CD276 protein, 1320; in assay [2], 12100.

B7: 30-E2-G7-G7 (antibody, V domains shown)
VH: EVQLQESGGGLVKPGGSLKLSCAASGFTFSYYAMSWVRQTPEKRLEWVATINGDGSHTYYPDSVRGRFTISRDNAKNTLYLQVSSLRSEDTAMYYCASLLQLGPFWGQGTTLTVSS
VL: DIVMTQSQKFMSTSVGDRVSVTCKASQNVGTNVAWYHQRPGQSPKPLIYSASYRYSGVPDRFTGSGSGTDFTLTISNVQSEDLAEYFCQQYNNYPLTFGSGTKLEIK
notes: as for B1
Regarding B7, the “FACS MFI” value in the assay with human CD276 protein [1] was 47000; with mouse CD276 protein it was 1300; in assay [2], 35100.

B8: 10-B9-D10-A12 (antibody, V domains shown)
VH: EVQLQESGPELVRPGVSVKISCKGSGYTFTDYTMHWVKLSHAKSLEWIGVISTYYGNTNYNQKFKGKATLTVDKSSSTAYMELARLTSEDSAIYYCARASYGSGYGPYYWYFDVWGAGTTVTVSS
VL: DIQMTQSPASLFASVGETVTITCRASEKIYSYLAWYFQKQGKSPQFLVYNANALAEGVPSRFSGSGSGTQFSLKINSLQPEDFGTYYCQHHYGTPVTFGAGSKLELK
notes: as for B1
B8: the “FACS MFI” value with human CD276 protein [1] was determined as 400000; in assay [2], 10100.

B9: 9-B9-H11-G7 (antibody, V domains shown)
VH: DVQLQESGPGLVKPSQSLSLTCSVTGYSITSGYYWNWIRQFPGNKLEWMVYISYDGTNNYNPSLKNRISITRDTSKNQFFLKLNSVTTEDTATYYCARGDSNSYYFDYWGQGTTLTVSS
VL: QAVVTQESALTTSPGGTVILTCRSSTGAVTTSNYANWVQEKPDHLFTGLIGGTSNRAPGVPVRFSGSLIGDKAALTITGAQTEDDAMYFCALWYRTHYVFGGGTKVTVL
notes: as for B1
In the case of B9, the figures for the “FACS MFI” value (with human CD276 protein [1]; with mouse CD276 protein; in assay [2]) were 96800, 1360 and 146000, respectively.

B10: 9-G12-D6-A11 (antibody, V domains shown)
VH: DVQLQVSGPGLVKPSQSLSLTCSVAGYSITSDYYWNWIRQFPGNKLEWMGYISYDGTNNYNPSLKNRISITRDTSKGQFFLKFNSVTTEDTATYYCARGKDGSYYFDYWGQGTTLTVSS
VL: QAVVTQESALTTSPGGTVILTCRSSTGAVTTSNYANWVQEKPDHLFTGLIGGTSNRAPGVPVRFSGSLIGDKAALTITGAQTEDDAMYFCALWYRTHYVFGGGTMVTVL
notes: as for B1
Take B10: the “FACS MFI” value with human CD276 protein [1] was found to be 53200; in the assay with mouse CD276 protein, 1420; in assay [2], 35700.

B11: 30-C7-C11-D4 (antibody, V domains shown)
VH: EVQLVESGPGLVKPSQSLSLTCTVTGYSITSDYAWNWIRQFPGNKLEWMGYISHSGSTSYNPSLKSRISITRDTSKNQFFLQLNSVTTEDTATYYCARSLGRRWYFDVWGAGTTVTVSS
VL: DIVMTQSPSSLAMSVGQKVTLSCKSSQSLLNSSTQKNYLAWYQQKPGQSPKLLVYFASTRDSGVPDRFIGSGSGTEFTLTISSVQAEDLADYFCQQHYIIPFTFGAGTKLEIK
notes: as for B1
B11: the “FACS MFI” value in the assay with human CD276 protein [1] worked out at 138000; in the assay with mouse CD276 protein, 8220; in assay [2], 96300.

B12: 20-F8-B5-G2 (antibody, V domains shown)
VH: EVQLQESGPSLVKPSQTLSLTCSVTGDSITSAYWNWIRKFPGNKLEYMGYISNSGSTYYNPSLKSRISITRDTSKNQYYLQLNSVTTEDTGTYYCVRGERYYGYGAYWGQGTLVTVSA
VL: DIVMTQATPSVPVTPGESISISCRSSKSLLHSNGNTYLYWFLQRPGQSPQLLIYRMSNLASGVPDRFSGSGSGTAFTLRISRVEAEDVGVYYCMQHLEYPFTFGAGTKLELK
notes: as for B1
For B12, the “FACS MFI” value is 88800 with human CD276 protein [1], 67000 with mouse CD276 protein and 51100 in assay [2].

B13: 15-G1-D1-E3 (antibody, V domains shown)
VH: QVQLQQPGAELVKPGTSVKLSCKASGYTFTSYWIHWVKQRPGQGLEWIGMIHPKSGTVDYNEKFKSKATLTADKSSNTAYMQLSSLTSEASVVYYCARGENYDYRPQFVYWGQGTLVTVSA
VL: QLVLTQSSSASFSLGASAKLTCTLSSQHSTYTIEWYQQQPLKPPKYVMELKKDGSHRTGDGIPDRFSGSSSGADRYLSISNIQPEDEAIYICGVGDTIKEQFVYVFGGGTKVTVL
notes: as for B1
Turning to B13, the “FACS MFI” value with human CD276 protein [1] turned out to be 62500; in the assay with mouse CD276 protein, 6610; in assay [2], 99400.

Values taken from patent US20240400689A1 (ANTENGENE BIOLOGICS, published 2024).
